Patent publication US20040208887A1

Target: recombinant E2 (genotype 1a) (hepatitis C virus genotype 1a) (UniProt P26664)
Assay: ELISA, E2 coated as negative control antigen; crude periplasmic Fab

recombinant E2 (genotype 1a) (hepatitis C virus genotype 1a), sequence (P26664 384-715 limits assumed): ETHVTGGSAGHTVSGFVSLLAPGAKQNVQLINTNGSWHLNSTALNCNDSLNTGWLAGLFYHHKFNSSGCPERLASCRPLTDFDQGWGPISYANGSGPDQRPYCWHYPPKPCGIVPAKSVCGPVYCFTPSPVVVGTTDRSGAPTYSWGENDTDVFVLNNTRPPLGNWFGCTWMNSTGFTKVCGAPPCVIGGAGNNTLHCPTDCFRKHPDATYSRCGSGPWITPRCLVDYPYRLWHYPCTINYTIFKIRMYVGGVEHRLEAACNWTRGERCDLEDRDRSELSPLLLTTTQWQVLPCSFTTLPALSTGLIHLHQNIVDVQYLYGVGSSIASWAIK

B1: Fab clone 6a:5 (Fab, V domains shown)
VH: EVQLLESGPGLVKPSQTLSLTCAISGDNVSRKSAAWNWIRQSPSRGLEWLGRTYHMSKWYSVYATSLKSRININVDTSRNQFALQLRSVTPEDTAVYYCAREGPEWAVGGTYGMDVWGQGTTVTVSS
VL: AELTQSPDTLSLSPGERATLSCRASQSVNNNYLAWYQQKPGQAPRLLIYGASSRATGIPDRFSGSGSETDFTLTISRLEPEDFAVYYCQQYDSSRTFGQGTKVEIK
**Q.** For B1, which OD405 nm is on record?
**A.** 0.03 OD405 nm

B2: Fab clone 4:6 (Fab, V domains shown)
VH: VQLLEQSGAEVKKPGASVKVSCKASGYTFTKYYLHWVRQAPGQGLEWMGFINPSGGSTSSAQKFQGRISMTRDTSTTTVYMEVNSVTSEDTAVYYCARVGRLGVGATGAFDLWGQGTMVTVSS
VL: AELTQSPSSLSASVGDRVTITCQASQDINYSLNWYQQKPGKPPKLLIYYASHSDTGVPSRFSGGGSGTRFTLTIYSLQPEDIATYYCQHFDHVPRYTFGPGTKVDLK
**Q.** For B2, which OD405 nm is on record?
**A.** 0.08 OD405 nm
